Here are results for 39 molecules from US20160310583A1 (SUMITOMO DAINIPPON PHARMA, published 2016).

Read-outs that look alike come from different tables or passages of the source.

What all share (test): MHC class I stabilization on T2-A24 cells, flow cytometry, 100 ug/mL peptide
The target of assay [1] is T1, HLA-A*02:01 (human).
T1 construct: whole, on cells; MHC class I molecule, empty until peptide is added; detected with FITC anti-HLA-A02 antibody BB7.2

Assay [2] concerns the target T2, HLA-A*24:02 (human).
T2 construct: whole, on cells; MHC class I molecule, empty until peptide is added; detected with FITC anti-HLA-A24 antibody 17A10

For assay [3], the target named is T1, HLA-A*02:01. The source holds these as a separate data set.
The target of assay [4] is T2, HLA-A*24:02. This is another data set of the same source.

Turning to KVIALVMDI [FAM83B-derived peptide F148_9], the “MFI (solvent ratio)” value in assay [1] was ≥ 1.5 ratio to solvent; in assay [2] it was ≥ 1.5 ratio to solvent; in assay [3] it was 2.4 ratio to solvent; in assay [4] it was 1.6 ratio to solvent.

As to FLAEEEINYI [FAM83B-derived peptide F55_10], the “MFI (solvent ratio)” value in assay [1] is ≥ 1.5 ratio to solvent; in assay [3] it was 3.5 ratio to solvent; in assay [4] it was 1.2 ratio to solvent.

Turning to HGLEAYQEFLV [FAM83B-derived peptide F38_11], the “MFI (solvent ratio)” value is ≥ 1.5 ratio to solvent in assay [1], ≥ 1.5 ratio to solvent in assay [2], 2.5 ratio to solvent in assay [3] and 3.1 ratio to solvent in assay [4].

Regarding VYILLDESNF [FAM83B-derived peptide F176_10], the “MFI (solvent ratio)” value was ≥ 1.5 ratio to solvent in assay [2], 1.2 ratio to solvent in assay [3] and 2.7 ratio to solvent in assay [4].

Turning to MVQIITGQLV [FAM83B-derived peptide F257_10], the “MFI (solvent ratio)” value in assay [1] was ≥ 1.5 ratio to solvent; in assay [3], 1.9 ratio to solvent; in assay [4], 1.1 ratio to solvent.

In the case of KVIALVMDIF [FAM83B-derived peptide F148_10], the “MFI (solvent ratio)” value is ≥ 1.5 ratio to solvent in assay [2], 1.1 ratio to solvent in assay [3] and 2.6 ratio to solvent in assay [4].

With PLPESIPKL [FAM83B-derived peptide F594_9], the “MFI (solvent ratio)” value was ≥ 1.5 ratio to solvent in assay [2] and 3.8 ratio to solvent in assay [4].

On to FLLVDCQKVM [FAM83B-derived peptide F231_10], for which the “MFI (solvent ratio)” value in assay [1] was ≥ 1.5 ratio to solvent; in assay [3], 2 ratio to solvent; in assay [4] it was 1 ratio to solvent.

Take WYRVAIDILI [FAM83B-derived peptide F27_10]: the results for the “MFI (solvent ratio)” value in assay [2], in assay [3] and in assay [4] were ≥ 1.5 ratio to solvent, 1.2 ratio to solvent and 3.2 ratio to solvent, respectively.

With LVQERVSDFL [FAM83B-derived peptide F47_10], the “MFI (solvent ratio)” value was ≥ 1.5 ratio to solvent in assay [2], 1.1 ratio to solvent in assay [3] and 1.5 ratio to solvent in assay [4].

With ALVMDIFTDV [FAM83B-derived peptide F151_10], the results for the “MFI (solvent ratio)” value in assay [1], in assay [3] and in assay [4] were ≥ 1.5 ratio to solvent, 3.4 ratio to solvent and 1 ratio to solvent, respectively.

On to VIALVMDIFT [FAM83B-derived peptide F149_10], for which the “MFI (solvent ratio)” value is ≥ 1.5 ratio to solvent in assay [2], 1.3 ratio to solvent in assay [3] and 2.1 ratio to solvent in assay [4].

Take VMYGSYSYMWSF [FAM83B-derived peptide F239_12]: the “MFI (solvent ratio)” value was ≥ 1.5 ratio to solvent in assay [1], ≥ 1.5 ratio to solvent in assay [2], 1.6 ratio to solvent in assay [3] and 4 ratio to solvent in assay [4].

With HLLTIKETI [FAM83B-derived peptide F131_9], the “MFI (solvent ratio)” value in assay [1] was ≥ 1.5 ratio to solvent; in assay [2], ≥ 1.5 ratio to solvent; in assay [3], 1.5 ratio to solvent; in assay [4] it was 2.4 ratio to solvent.

In the case of VMYGSYSYMW [FAM83B-derived peptide F239_10], the “MFI (solvent ratio)” value was ≥ 1.5 ratio to solvent in assay [2], 1.1 ratio to solvent in assay [3] and 2.2 ratio to solvent in assay [4].

With NLDLGWPYV [FAM83B-derived peptide F103_9], the “MFI (solvent ratio)” value in assay [1] is ≥ 1.5 ratio to solvent; in assay [3], 2.6 ratio to solvent; in assay [4], 1.1 ratio to solvent.

As for LLDESNFNHFL [FAM83B-derived peptide F179_11], the “MFI (solvent ratio)” value in assay [1] is ≥ 1.5 ratio to solvent; in assay [3] it was 1.6 ratio to solvent; in assay [4], 1.1 ratio to solvent.

As for VMDIFTDVDIF [FAM83B-derived peptide F153_11], the “MFI (solvent ratio)” value in assay [2] was ≥ 1.5 ratio to solvent; in assay [3], 0.9 ratio to solvent; in assay [4], 2 ratio to solvent.

LYARSCVPSSF [FAM83B-derived peptide F276_11]: the “MFI (solvent ratio)” value in assay [2] was ≥ 1.5 ratio to solvent; in assay [3], 1.2 ratio to solvent; in assay [4] it was 3.4 ratio to solvent.

Regarding TLSSGTYWPV [FAM83B-derived peptide F86_10], the “MFI (solvent ratio)” value was ≥ 1.5 ratio to solvent in assay [1], 3 ratio to solvent in assay [3] and 1 ratio to solvent in assay [4].

Regarding KVMYGSYSYMWSF [FAM83B-derived peptide F238_13], the figures for the “MFI (solvent ratio)” value in assay [2], in assay [3] and in assay [4] were ≥ 1.5 ratio to solvent, 1.2 ratio to solvent and 5.1 ratio to solvent, respectively.

Take FLQQRMPTL [FAM83B-derived peptide F476_9]: the “MFI (solvent ratio)” value in assay [1] was ≥ 1.5 ratio to solvent; in assay [2] it was ≥ 1.5 ratio to solvent; in assay [3], 2 ratio to solvent; in assay [4] it was 2.6 ratio to solvent.

Turning to PFCKIESSI [FAM83B-derived peptide F939_9], the “MFI (solvent ratio)” value in assay [2] was ≥ 1.5 ratio to solvent; in assay [3], 0.9 ratio to solvent; in assay [4] it was 2.7 ratio to solvent.

In the case of SYGRSSPLL [FAM83B-derived peptide F971_9], the entries for the “MFI (solvent ratio)” value in assay [2], in assay [3] and in assay [4] were ≥ 1.5 ratio to solvent, 1.1 ratio to solvent and 1.8 ratio to solvent, respectively.

Consider FLAEEEINYIL [FAM83B-derived peptide F55_11], for which the entries for the “MFI (solvent ratio)” value in assay [1], in assay [3] and in assay [4] were ≥ 1.5 ratio to solvent, 3.6 ratio to solvent and 1 ratio to solvent, respectively.

Consider HYKEWYRVAI [FAM83B-derived peptide F23_10], for which the “MFI (solvent ratio)” value in assay [1] is ≥ 1.5 ratio to solvent; in assay [2] it was ≥ 1.5 ratio to solvent; in assay [3], 2 ratio to solvent; in assay [4], 3 ratio to solvent.

Consider SYFKNRGIYTL [FAM83B-derived peptide F335_11], for which the “MFI (solvent ratio)” value was ≥ 1.5 ratio to solvent in assay [2], 1 ratio to solvent in assay [3] and 2.3 ratio to solvent in assay [4].

For the molecule NYIEPHYKEW [FAM83B-derived peptide F18_10], the “MFI (solvent ratio)” value in assay [2] was ≥ 1.5 ratio to solvent; in assay [3], 1 ratio to solvent; in assay [4], 3.2 ratio to solvent.

Consider YILKNVQKV [FAM83B-derived peptide F63_9], for which the results for the “MFI (solvent ratio)” value in assay [1], in assay [3] and in assay [4] were ≥ 1.5 ratio to solvent, 3.3 ratio to solvent and 1 ratio to solvent, respectively.

On to GWPYVMPGLL [FAM83B-derived peptide F107_10], for which the “MFI (solvent ratio)” value in assay [2] was ≥ 1.5 ratio to solvent; in assay [3], 1 ratio to solvent; in assay [4] it was 2.7 ratio to solvent.

With NYILKNVQKV [FAM83B-derived peptide F62_10], the “MFI (solvent ratio)” value was ≥ 1.5 ratio to solvent in assay [1], ≥ 1.5 ratio to solvent in assay [2], 2.9 ratio to solvent in assay [3] and 1.6 ratio to solvent in assay [4].

Turning to SYQPNENKF (also called FAM83B peptide) [FAM83B-derived peptide SF_9], the “MFI (solvent ratio)” value is ≥ 1.5 ratio to solvent in assay [2], 1 ratio to solvent in assay [3] and 2.3 ratio to solvent in assay [4].

On to TYQHSVSSLASV [FAM83B-derived peptide F305_12], for which the “MFI (solvent ratio)” value was ≥ 1.5 ratio to solvent in assay [1], ≥ 1.5 ratio to solvent in assay [2], 2 ratio to solvent in assay [3] and 3.1 ratio to solvent in assay [4].

As to SMVQIITGQLV [FAM83B-derived peptide F256_11], the figures for the “MFI (solvent ratio)” value in assay [1], in assay [3] and in assay [4] were ≥ 1.5 ratio to solvent, 3.2 ratio to solvent and 1.1 ratio to solvent, respectively.

In the case of GLLGGTHIDLL [FAM83B-derived peptide F114_11], the entries for the “MFI (solvent ratio)” value in assay [1], in assay [3] and in assay [4] were ≥ 1.5 ratio to solvent, 2.9 ratio to solvent and 1.1 ratio to solvent, respectively.

Regarding TYQHSVSSL [FAM83B-derived peptide F305_9], the “MFI (solvent ratio)” value is ≥ 1.5 ratio to solvent in assay [2], 1.1 ratio to solvent in assay [3] and 2.4 ratio to solvent in assay [4].

Regarding FLVQERVSDFL [FAM83B-derived peptide F46_11], the “MFI (solvent ratio)” value in assay [2] is ≥ 1.5 ratio to solvent; in assay [4], 1.6 ratio to solvent.

For the molecule SFNGTDNHIRF [FAM83B-derived peptide F466_11], the “MFI (solvent ratio)” value in assay [2] was ≥ 1.5 ratio to solvent; in assay [3], 1 ratio to solvent; in assay [4], 1.7 ratio to solvent.

As for RLCSSSDTLV [FAM83B-derived peptide F799_10], the “MFI (solvent ratio)” value in assay [1] was ≥ 1.5 ratio to solvent; in assay [3], 2.1 ratio to solvent; in assay [4] it was 1.2 ratio to solvent.
